Laboratory results reported in publication PMC5487486.

Legend:
[1] = target: TaSPA (Triticum aestivum); assay: two-hybrid; Gal4 system (pGADT7 and pGBKT7), yeast strain Y187, read out by growth and β-galactosidase (LacZ) activity, three replicates
[2] = target: TaFUSCA3 N-terminal region (1st to 60th amino acids) (Triticum aestivum); assay: as above

Sequence of TaSPA (Triticum aestivum) (Q7X9A8 whole entry, the tested form may be a part): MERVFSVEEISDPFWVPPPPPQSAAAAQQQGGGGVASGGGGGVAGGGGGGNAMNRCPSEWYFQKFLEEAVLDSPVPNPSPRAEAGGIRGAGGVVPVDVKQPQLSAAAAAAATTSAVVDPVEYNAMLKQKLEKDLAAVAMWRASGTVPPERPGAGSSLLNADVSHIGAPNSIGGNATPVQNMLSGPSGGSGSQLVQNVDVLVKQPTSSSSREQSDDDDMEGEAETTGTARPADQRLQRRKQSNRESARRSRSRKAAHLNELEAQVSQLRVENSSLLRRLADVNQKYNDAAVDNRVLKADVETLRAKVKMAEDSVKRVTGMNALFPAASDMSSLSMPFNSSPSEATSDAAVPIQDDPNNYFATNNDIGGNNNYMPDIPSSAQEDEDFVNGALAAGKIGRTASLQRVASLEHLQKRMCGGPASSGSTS

| fold β-galactosidase activity over AD-FUSCA3* with BD-SPA [1] [fold] | fold β-galactosidase activity over the B3 domain with SPA [2] [fold] | Substance |
| --- | --- | --- |
| 2 | – | TaFUSCA3 (natural protein) |
| – | 4 | TaSPA (from UniProt Q7X9A8 1-425) (natural protein) |
